# T1: EsCas13d, nuclease-dead (Eubacterium siraeum, UniProt B0MS50, R295A;H300A;R849A;H854A)
# T1 sequence: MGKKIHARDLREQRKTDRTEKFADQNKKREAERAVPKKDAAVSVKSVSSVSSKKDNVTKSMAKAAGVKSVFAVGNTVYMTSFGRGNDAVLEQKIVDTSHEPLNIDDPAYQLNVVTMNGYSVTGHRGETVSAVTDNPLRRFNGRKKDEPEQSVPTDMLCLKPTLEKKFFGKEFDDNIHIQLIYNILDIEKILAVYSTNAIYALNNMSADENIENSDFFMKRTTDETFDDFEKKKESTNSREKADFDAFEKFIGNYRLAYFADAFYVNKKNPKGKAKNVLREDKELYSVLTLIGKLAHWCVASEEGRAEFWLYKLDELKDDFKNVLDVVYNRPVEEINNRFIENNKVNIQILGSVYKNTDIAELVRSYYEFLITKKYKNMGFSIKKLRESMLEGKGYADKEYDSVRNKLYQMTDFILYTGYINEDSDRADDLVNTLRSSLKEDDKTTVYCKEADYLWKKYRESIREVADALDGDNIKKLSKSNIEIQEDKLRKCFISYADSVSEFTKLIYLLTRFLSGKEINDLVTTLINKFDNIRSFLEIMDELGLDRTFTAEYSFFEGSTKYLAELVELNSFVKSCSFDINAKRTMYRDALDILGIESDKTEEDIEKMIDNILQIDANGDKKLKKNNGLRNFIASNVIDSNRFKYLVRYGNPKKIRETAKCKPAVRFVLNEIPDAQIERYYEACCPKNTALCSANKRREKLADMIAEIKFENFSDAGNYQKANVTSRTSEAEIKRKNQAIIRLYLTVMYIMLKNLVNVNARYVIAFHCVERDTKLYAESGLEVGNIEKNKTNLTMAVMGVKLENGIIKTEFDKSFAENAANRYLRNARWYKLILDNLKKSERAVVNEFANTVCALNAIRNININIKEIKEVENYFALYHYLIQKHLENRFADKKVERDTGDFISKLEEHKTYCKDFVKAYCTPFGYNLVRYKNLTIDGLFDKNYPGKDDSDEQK
# B1: target 1 insA 3' of 22,insC 3' of 12 (mixed)
# RNA 1: CACCCGUGCAAAAAUGCAGGGGUCUAAAACUGAGCGGAUAACCUCUCUAUGG
# RNA 2: GGGAAUGGAUCCACAUCUACGAAUUCGUACACAUAGAGAGGCUUAUCCGCUCACCGAGAUCGGAAGAGCACACGU
# B2: target 1 U10A,G13A (mixed)
# RNA 1: CACCCGUGCAAAAAUGCAGGGGUCUAAAACUGAGCGGAUAACCUCUCUAUGG
# RNA 2: GGGAAUGGAUCCACAUCUACGAAUUCGUACCAUAGAGAAGUAAUCCGCUCACCGAGAUCGGAAGAGCACACGU
# B3: target 1 C7U,U8A (mixed)
# RNA 1: CACCCGUGCAAAAAUGCAGGGGUCUAAAACUGAGCGGAUAACCUCUCUAUGG
# RNA 2: GGGAAUGGAUCCACAUCUACGAAUUCGUACCAUAGAGAGGUUAAUCGCUCACCGAGAUCGGAAGAGCACACGU
# B4: target 1 G12C,G13C (mixed)
# RNA 1: CACCCGUGCAAAAAUGCAGGGGUCUAAAACUGAGCGGAUAACCUCUCUAUGG
# RNA 2: GGGAAUGGAUCCACAUCUACGAAUUCGUACCAUAGAGACCUUAUCCGCUCACCGAGAUCGGAAGAGCACACGU
# B5: target 1 insU 3' of 18,insU 3' of 18 (mixed)
# RNA 1: CACCCGUGCAAAAAUGCAGGGGUCUAAAACUGAGCGGAUAACCUCUCUAUGG
# RNA 2: GGGAAUGGAUCCACAUCUACGAAUUCGUACCAUAUUGAGAGGUUAUCCGCUCACCGAGAUCGGAAGAGCACACGU
# B6: target 1 insA 3' of 22,insA 3' of 13 (mixed)
# RNA 1: CACCCGUGCAAAAAUGCAGGGGUCUAAAACUGAGCGGAUAACCUCUCUAUGG
# RNA 2: GGGAAUGGAUCCACAUCUACGAAUUCGUACACAUAGAGAGAGUUAUCCGCUCACCGAGAUCGGAAGAGCACACGU
# B7: target 1 insC 3' of 18,insC 3' of 15 (mixed)
# RNA 1: CACCCGUGCAAAAAUGCAGGGGUCUAAAACUGAGCGGAUAACCUCUCUAUGG
# RNA 2: GGGAAUGGAUCCACAUCUACGAAUUCGUACCAUACGAGCAGGUUAUCCGCUCACCGAGAUCGGAAGAGCACACGU
# B8: target 1 insA 3' of 5,insG 3' of 2 (mixed)
# RNA 1: CACCCGUGCAAAAAUGCAGGGGUCUAAAACUGAGCGGAUAACCUCUCUAUGG
# RNA 2: GGGAAUGGAUCCACAUCUACGAAUUCGUACCAUAGAGAGGUUAUCCGACUCGACCGAGAUCGGAAGAGCACACGU
# B9: target 1 C2G,U3G (mixed)
# RNA 1: CACCCGUGCAAAAAUGCAGGGGUCUAAAACUGAGCGGAUAACCUCUCUAUGG
# RNA 2: GGGAAUGGAUCCACAUCUACGAAUUCGUACCAUAGAGAGGUUAUCCGCGGACCGAGAUCGGAAGAGCACACGU
# B10: target 1 C4U,C6U (mixed)
# RNA 1: CACCCGUGCAAAAAUGCAGGGGUCUAAAACUGAGCGGAUAACCUCUCUAUGG
# RNA 2: GGGAAUGGAUCCACAUCUACGAAUUCGUACCAUAGAGAGGUUAUCUGUUCACCGAGAUCGGAAGAGCACACGU
# B11: target 1 insC 3' of 22,insA 3' of 10 (mixed)
# RNA 1: CACCCGUGCAAAAAUGCAGGGGUCUAAAACUGAGCGGAUAACCUCUCUAUGG
# RNA 2: GGGAAUGGAUCCACAUCUACGAAUUCGUACCCAUAGAGAGGUUAAUCCGCUCACCGAGAUCGGAAGAGCACACGU
# B12: target 1 insG 3' of 16,insC 3' of 16 (mixed)
# RNA 1: CACCCGUGCAAAAAUGCAGGGGUCUAAAACUGAGCGGAUAACCUCUCUAUGG
# RNA 2: GGGAAUGGAUCCACAUCUACGAAUUCGUACCAUAGAGCGAGGUUAUCCGCUCACCGAGAUCGGAAGAGCACACGU
# B13: target 1 U3A,C6A (mixed)
# RNA 1: CACCCGUGCAAAAAUGCAGGGGUCUAAAACUGAGCGGAUAACCUCUCUAUGG
# RNA 2: GGGAAUGGAUCCACAUCUACGAAUUCGUACCAUAGAGAGGUUAUCAGCACACCGAGAUCGGAAGAGCACACGU
# B14: target 1 insC 3' of 20,insU 3' of 7 (mixed)
# RNA 1: CACCCGUGCAAAAAUGCAGGGGUCUAAAACUGAGCGGAUAACCUCUCUAUGG
# RNA 2: GGGAAUGGAUCCACAUCUACGAAUUCGUACCACUAGAGAGGUUAUCUCGCUCACCGAGAUCGGAAGAGCACACGU
# B15: target 1 insA 3' of 19,insG 3' of 3 (mixed)
# RNA 1: CACCCGUGCAAAAAUGCAGGGGUCUAAAACUGAGCGGAUAACCUCUCUAUGG
# RNA 2: GGGAAUGGAUCCACAUCUACGAAUUCGUACCAUAAGAGAGGUUAUCCGCUGCACCGAGAUCGGAAGAGCACACGU
# B16: target 1 insA 3' of 21,insA 3' of 4 (mixed)
# RNA 1: CACCCGUGCAAAAAUGCAGGGGUCUAAAACUGAGCGGAUAACCUCUCUAUGG
# RNA 2: GGGAAUGGAUCCACAUCUACGAAUUCGUACCAAUAGAGAGGUUAUCCGCAUCACCGAGAUCGGAAGAGCACACGU
# B17: target 1 G13C,G15A (mixed)
# RNA 1: CACCCGUGCAAAAAUGCAGGGGUCUAAAACUGAGCGGAUAACCUCUCUAUGG
# RNA 2: GGGAAUGGAUCCACAUCUACGAAUUCGUACCAUAGAAACGUUAUCCGCUCACCGAGAUCGGAAGAGCACACGU
# B18: target 1 insU 3' of 5 (mixed)
# RNA 1: CACCCGUGCAAAAAUGCAGGGGUCUAAAACUGAGCGGAUAACCUCUCUAUGG
# RNA 2: GGGAAUGGAUCCACAUCUACGAAUUCGUACCAUAGAGAGGUUAUCCGUCUCACCGAGAUCGGAAGAGCACACGU
# B19: target 1 G12A,C21A (mixed)
# RNA 1: CACCCGUGCAAAAAUGCAGGGGUCUAAAACUGAGCGGAUAACCUCUCUAUGG
# RNA 2: GGGAAUGGAUCCACAUCUACGAAUUCGUACAAUAGAGAGAUUAUCCGCUCACCGAGAUCGGAAGAGCACACGU
# B20: target 1 insU 3' of 22,insG 3' of 6 (mixed)
# RNA 1: CACCCGUGCAAAAAUGCAGGGGUCUAAAACUGAGCGGAUAACCUCUCUAUGG
# RNA 2: GGGAAUGGAUCCACAUCUACGAAUUCGUACUCAUAGAGAGGUUAUCCGGCUCACCGAGAUCGGAAGAGCACACGU
# B21: target 1 insG 3' of 10,insA 3' of 10 (mixed)
# RNA 1: CACCCGUGCAAAAAUGCAGGGGUCUAAAACUGAGCGGAUAACCUCUCUAUGG
# RNA 2: GGGAAUGGAUCCACAUCUACGAAUUCGUACCAUAGAGAGGUUGAAUCCGCUCACCGAGAUCGGAAGAGCACACGU
# B22: target 1 insA 3' of 15,insU 3' of 5 (mixed)
# RNA 1: CACCCGUGCAAAAAUGCAGGGGUCUAAAACUGAGCGGAUAACCUCUCUAUGG
# RNA 2: GGGAAUGGAUCCACAUCUACGAAUUCGUACCAUAGAGAAGGUUAUCCGUCUCACCGAGAUCGGAAGAGCACACGU
# B23: target 1 G12C,C21U (mixed)
# RNA 1: CACCCGUGCAAAAAUGCAGGGGUCUAAAACUGAGCGGAUAACCUCUCUAUGG
# RNA 2: GGGAAUGGAUCCACAUCUACGAAUUCGUACUAUAGAGAGCUUAUCCGCUCACCGAGAUCGGAAGAGCACACGU
# B24: target 1 C4A,U11G (mixed)
# RNA 1: CACCCGUGCAAAAAUGCAGGGGUCUAAAACUGAGCGGAUAACCUCUCUAUGG
# RNA 2: GGGAAUGGAUCCACAUCUACGAAUUCGUACCAUAGAGAGGGUAUCCGAUCACCGAGAUCGGAAGAGCACACGU
# B25: target 1 U3G,G15U (mixed)
# RNA 1: CACCCGUGCAAAAAUGCAGGGGUCUAAAACUGAGCGGAUAACCUCUCUAUGG
# RNA 2: GGGAAUGGAUCCACAUCUACGAAUUCGUACCAUAGAUAGGUUAUCCGCGCACCGAGAUCGGAAGAGCACACGU
# B26: target 1 G12U,A18C (mixed)
# RNA 1: CACCCGUGCAAAAAUGCAGGGGUCUAAAACUGAGCGGAUAACCUCUCUAUGG
# RNA 2: GGGAAUGGAUCCACAUCUACGAAUUCGUACCAUCGAGAGUUUAUCCGCUCACCGAGAUCGGAAGAGCACACGU
# B27: target 1 insC 3' of 19,insA 3' of 3 (mixed)
# RNA 1: CACCCGUGCAAAAAUGCAGGGGUCUAAAACUGAGCGGAUAACCUCUCUAUGG
# RNA 2: GGGAAUGGAUCCACAUCUACGAAUUCGUACCAUCAGAGAGGUUAUCCGCUACACCGAGAUCGGAAGAGCACACGU
# B28: target 1 insU 3' of 18,insA 3' of 10 (mixed)
# RNA 1: CACCCGUGCAAAAAUGCAGGGGUCUAAAACUGAGCGGAUAACCUCUCUAUGG
# RNA 2: GGGAAUGGAUCCACAUCUACGAAUUCGUACCAUAUGAGAGGUUAAUCCGCUCACCGAGAUCGGAAGAGCACACGU
# Target: T1, EsCas13d, nuclease-dead
# Test: crRNA (strand 1, pre-loaded); Mg2+; 40 mM Tris-HCl pH 7.5, 150 mM NaCl, 6 mM MgCl2, 1 mM DTT, 0.1% Tween-20, 0.2 mg/ml BSA; 25 C; 10 min per concentration, then washed
# Conditions: tags: His6-TwinStrep-SUMO cleaved; N-terminal SNAP kept (SNAP-Surface 488); label: 3' end held by stalled T7 RNA polymerase
row,Binder,Kd [nM]
1,B1,20.1 ± 1.2
2,B2,9.5 ± 1
3,B3,12.9 ± 0.7
4,B4,30 ± 6
5,B5,30.9 ± 2
6,B6,6 ± 0.4
7,B7,56 ± 8
8,B8,8.3 ± 0.7
9,B9,4.43 ± 0.34
10,B10,28 ± 8
11,B11,28.2 ± 3.4
12,B12,31.5 ± 1.8
13,B13,5.02 ± 0.21
14,B14,13.2 ± 1
15,B15,13.2 ± 0.6
16,B16,10.2 ± 1.3
17,B17,46 ± 9
18,B18,18.1 ± 2.5
19,B19,34.8 ± 2.2
20,B20,34 ± 7
21,B21,10.7 ± 0.6
22,B22,27.9 ± 2.9
23,B23,6 ± 0.5
24,B24,8.4 ± 0.7
25,B25,~60
26,B26,40 ± 4
27,B27,29.8 ± 2.1
28,B28,41.2 ± 3.1

# — paper PMC10786891, “Massively parallel profiling of RNA-targeting CRISPR-Cas13d”
